B1: L-PaPPO (recombinant latent apricot polyphenol oxidase) (Prunus armeniaca; A376C/R416N/S149R/V417C) (protein)
chain: DPIAPPDLTTCKPAEITPGGSETVPCCPPVTTKIKTFKPDLSIPLRTRPAAHQVTDEYLAKFKKAQAAMRALPDDDPRSMVQQAKVHCAYCNGAYPQVGFTDNDIQVHFSWLFFPFHRMYLYFYERILGKLIDDPTFALPYWNWDSPVGFPIPDIYTDTSSPLYDQYRNADHQPPVLVDLSYGGKDDDVDEQTRIDENLAIMYRQMVSGAKTPDLFFGHAYRAGNLNTGKYPGTIENMPHNNIHIWVGDPSQTHQEDMGNFYSAGRDPLFYAHHCNVDRMWNIWKTLGGKRKDITDTDWLDAEFLFYDENAELVNCKVRDSLEPEKQLRYNYEPVSLPWLFTKPTARKTKNKTKAKVAATQLTSKFPATLVEVTTVEVARPKPRKRSKKEKVDEEELLIIKDIEFEGTEAVKFDVFINDDAESLSRRDKSEFAGSFVHVPQGKTTKAKTKTNLKLGITDLLEDLGAEDDSSVLVTLVPRVSNSPITIGGFKIEYSS
notes: latent form Asp102-Ser597 (active plus C-terminal domain), signal peptide removed; Gly-Pro-Met left after HRV 3C cleavage of GST; E. coli SHuffle T7; intron removed

Key:
Details in all cases: pH 7.0, 50 mM Tris-HCl, 25 °C, 2 mM SDS as activator of the latent enzyme
[1] = biological target: T1, L-PaPPO (recombinant latent apricot polyphenol oxidase) (Prunus armeniaca, UniProt O81103, S149R/A376C/R416N/V417C)
T1 construct: gene PPO

purified protein [2] = substrate: NCCc1ccc(O)c(O)c1; experiment: purified protein; format: biochemical, Prunus armeniaca
purified protein [3] = substrate: NCCc1ccc(O)cc1; experiment: purified protein; format: biochemical, Prunus armeniaca

Row | Molecule | Km [1] | Km (purified protein [2]) | kcat (purified protein [2]) | kcat/Km (purified protein [2]) | Km (purified protein [3]) | kcat (purified protein [3]) | kcat/Km (purified protein [3])
1 | O=C(/C=C/c1ccc(O)c(O)c1)O[C@@H]1C[C@](O)(C(=O)O)C[C@@H](O)[C@H]1O [Chlorogenic acid] | 1520 ± 100 µM | – | – | – | – | – | –
2 | O=C(/C=C/c1ccc(O)c(O)c1)O[C@@H]1C[C@@](O)(C(=O)O)C[C@@H](O)[C@@H]1O [Neochlorogenic acid] | 1470 ± 290 µM | – | – | – | – | – | –
3 | B1 | – | 1610 ± 160 µM | 162 ± 3.3 s⁻¹ | 99800 ± 2900 M⁻¹ s⁻¹ | 4480 ± 360 µM | 1.42 ± 0.13 s⁻¹ | 318 ± 29 M⁻¹ s⁻¹
